Test system: MS2 coat protein
Experiment: apparent KD of MS2 coat protein; designed switch direction (-1 OFF switch, 1 ON switch): 1; higher = weaker reporter binding
Procedure, shortened: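 Each step of the titration lasted 0.8–1.5 h at the lowest concentration and 10–20 min at the highest. The protein, SNAP-549-labelled MS2 coat protein, went from 0.7 or 1.5 nM doubling to 3 µM over RNA switches transcribed on Illumina chips by stalled E. coli RNA polymerase. Normalised cluster fluorescence was curve-fitted, and the per-design median over clusters is given as apparent KD.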

[1] = input ligand: microRNA oligo, concentration not stated
[2] = Eterna round: R95, input ligand: FMN 200 uM
[3] = Eterna round: R95, input ligand: microRNA oligo, concentration not stated
[4] = Eterna round: R95, input ligand: none

Sequence | apparent KD of MS2 coat protein [1] | apparent KD of MS2 coat protein (input ligand: FMN 200 uM) | apparent KD of MS2 coat protein (input ligand: none) | apparent KD of MS2 coat protein [2] | apparent KD of MS2 coat protein [3] | apparent KD of MS2 coat protein [4]
AUUAAUUAAUUAAUACAUGAGGAUCACCCAUGUAAUAAGAUCUAGGAUAUCAGCUCGUUUAGAGCUGAGAAGGAGAUCACAUGU [SSNG3/17-A3] (Eterna round: R96, puzzle: Same State NG 3) | 0.0327 µM | – | – | – | – | –
AUUAUUAAUAUAGGAUAUGUAAAACAUGAGGAUCACCCAUGUGAUAUCGUGAGUAAGGAGAGAGAACAGAAGGAUAAUUUUUUU [JMF's solution 1] (Eterna round: R96, puzzle: Same State NG 2) | 0.0309 µM | 0.0381 µM | 0.0413 µM | – | – | –
AUUAUUAAUGCAGGAUAUGAUUAACAUGAGGAUCACCCAUGUGGUGUUGUGAGUAAGGAGAGUGAUCAGAAGGGCAUUUUUUGU [JMF's solution 16] (Eterna round: R96, puzzle: Same State NG 2) | 0.264 µM | 0.798 µM | 0.615 µM | – | – | –
AUUGCUAGCACAGGAUAUCAUGCGAAAAUUGCGUGAGAAGGGUGGACACUGUCAUUCACGGAGGACAUGAGGAUCACCCAUGUC [SameState NG1 #79] (Eterna round: R96, puzzle: Same State NG 1) | 0.059 µM | 0.0771 µM | 0.0749 µM | – | – | –
AUUGCUAGCGCAGGAUAUGAUGCGAAAAUUGCGUCAGAAGGGUGUAAUCUCUCAUUGCGGGAGGACAUGAGGAUCACCCAUGUC [SameState NG1 #84] (Eterna round: R96, puzzle: Same State NG 1) | 0.123 µM | – | – | – | – | –
AUUGCUUACGCAGGAUAUGAUGCGAAAAUUGCGUCAGAAGGGUGAAGUGACUCGUAGCAACAAGACAUGAGGAUCACCCAUGUC [SameState NG1 #93] (Eterna round: R96, puzzle: Same State NG 1) | 0.0264 µM | 0.0282 µM | 0.0421 µM | – | – | –
AUUGGGUAACGAGGAUAUCGUAUUUGUUUGUUUCGAGAAGGCGUUAUAGUUUCUUUCUAUUGUUACAUGAGGAUCACCCAUGUU [JR_SSNG1_Sub052] (Eterna round: R96, puzzle: Same State NG 1) | 0.015 µM | 0.0191 µM | 0.0199 µM | – | – | –
AUUGUUUAUGCAGGAUAUGAUUAACAUGAGGAUCACCCAUGUGGUGUUGUGAGUAAGGAGAGUGAUCAGAAGGGCAUUUUUUUU [JMF's solution 69] (Eterna round: R96, puzzle: Same State NG 2) | 0.273 µM | 0.735 µM | 0.411 µM | – | – | –
AUUUAACAAGCUUUUUGCUCGUCUUAUAAACAUGAGGAUCACCCAUGUAAUAGCGUGAGAGUAAAUUAUUAAAUAAU [JMF 91] (puzzle: Sensor for hsa-mir-208a) | – | – | – | 0.013 µM | 0.0399 µM | 0.0119 µM
AUUUCUAAUGCAGGAUAUGAUUAACAUGAGGAUCACCCAUGUGGUGUUGUGAGUAAGGAGAGUGAUCAGAAGGGCAUUUUUUUU [JMF's solution 99] (Eterna round: R96, puzzle: Same State NG 2) | 0.428 µM | 0.915 µM | 0.579 µM | – | – | –
AUUUGCGCUAUAGGAUAUGGCAGGGUGAACCAGCCAGAAGGAUAAGUAGGGAGGUGACAUGAGGAUCACCCAUGUAAUAAGGAA [Eternabot solution 6] (Eterna round: R96, puzzle: Same State NG 1) | 0.29 µM | 0.33 µM | 0.378 µM | – | – | –
AUUUUAGUCAGAGGAUAUUGUUUAUCUCUAUUACAAGAAGGCUGAUCUUACUACCCACUUAUGAAACAUGAGGAUCACCCAUGU [JR_SSNG1_Sub016] (Eterna round: R96, puzzle: Same State NG 1) | 0.0206 µM | 0.0174 µM | 0.0258 µM | – | – | –
AUUUUUAAUGCAGGAUAUGAUUAACAUGAGGAUCACCCAUGUGGUGUUGUGAGUAAGGAGAGUGAUCAGAAGGGCAUUUUUGUU [JMF's solution 85] (Eterna round: R96, puzzle: Same State NG 2) | 0.466 µM | 0.686 µM | 0.715 µM | – | – | –
CACAAUCUAUCUGAGGAUAUCAUGAAAAAAACAUGAGGAUCACCCAUGUGCAGGAAAACUGCAUAUGAGAAGGCAGAUAGAUUGU [salish99_SS2_r3_015] (Eterna round: R96, puzzle: Same State 2) | 0.514 µM | – | – | – | – | –
CACAAUCUAUCUGAGGAUAUCAUGAAAAAAACAUGAGGAUCACCCAUGUGCAGGAAAACUGCAUAUGAGAAGGCAGAUAGAUUGU [salish99_SS2_r3_015] (puzzle: Same State 2) | – | – | – | 0.0283 µM | 0.72 µM | 0.913 µM
CACAUGAGGAUCACCCAUGUGAGGCGGCAAUAAAACCGCGCACAGGAUAUAGCGCUAAGAAUGCGCUAGAAGGGUGAUUAGAAC [Esenla] (Eterna round: R96, puzzle: Same State NG 3) | 0.0104 µM | 0.746 µM | 0.0393 µM | – | – | –
CAGCGCUGUCGAGAGGAUAUGCGGUGAUGGACAUGAGGAUCACCCAUGUUAGCGACAGCAUCACGGCAGAAGGCUCUACCGCCUG [Soteed Omei mod 43] (puzzle: Same State 2) | – | – | – | 0.0179 µM | 0.0224 µM | 0.0323 µM
CAGUACUGUCGAGAGGAUAUGCGGUGAUGGACAUGAGGAUCACCCAUGUUAGCGACAGCAUCACGGCAGAAGGCUCUACUGCUGC [Soteed Omei mod 33] (puzzle: Same State 2) | – | – | – | – | 0.0394 µM | –
CAGUGCUGUCGAGAGGAUAUGCGGUGAUGGACAUGAGGAUCACCCAUGUUAGCGACAGCGUUACGGCAGAAGGCUCUACCCACUG [Soteed Omei mod 47] (puzzle: Same State 2) | – | – | – | 0.0625 µM | 0.0287 µM | 0.0427 µM
CAUCCCUCCACAGGAUAUCGACCGAUAAAACGGCGAGAAGGGUGGCCACAUGAGGAUCACCCAUGUGGAAUUGGAUGAGCUACA [Enlaed] (Eterna round: R96, puzzle: Same State NG 1) | 0.0666 µM | 0.0787 µM | 0.126 µM | – | – | –
CAUCUCCCUUUUACAUGAGGAUCACCCAUGUUUUCAUAUUGAGAGGAUAUCGUAUUUGGAAACAUCGAGAAGGCUCAUUUGUAU [JR_SSNG3_Sub073] (Eterna round: R96, puzzle: Same State NG 3) | 0.345 µM | – | – | – | – | –
CCAUAACAGUGAGGAUAUUGUUGCGAUAAGUGACGAGAAGGCAUUCAUGUGAAAUAAACAUACAUGAGGAUCACCCAUGUUGUA [Omei SS(NG)1 Bv2] (Eterna round: R96, puzzle: Same State NG 1) | 0.0198 µM | 0.0179 µM | 0.0267 µM | – | – | –
CCAUGGUAACAUGAGGAUCACCCAUGUACAAGCUUUUUGCUCGUUUUAUUUAUUAUUAUUAUUAUUAUUAUUAUUAA [Nishu_Seq1] (puzzle: Sensor for hsa-mir-208a version 2) | – | – | – | 0.0335 µM | 0.105 µM | 0.0866 µM
CCCUCAUGCAGGCUAACACGCUUGUUUUAACAUGAGGAUCACCCAUGUACGUCGCCGUUUCGUGCGGGACGCGCAGA [Anuscear] (Eterna round: R96, puzzle: Sensor for hsa-mir-208a) | 0.229 µM | 0.363 µM | 0.169 µM | – | – | –
CCCUUCGGCACAUGAGGAUCACCCAUGUUUUAGUUGAAGAGGUAGGAUAUGGCUGGGAGCGGAAGCCAGAAGGACCAAGUGAGU [Lareonge] (Eterna round: R96, puzzle: Same State NG 3) | 0.00841 µM | 0.00776 µM | 0.0126 µM | – | – | –
CCGAAAUAUGGAGGAUAUGGAGCCUUAUUGGCUCCAGAAGGUCAAAACAUGAGGAUCACCCAUGUAUCGGCGGUCAAUAGACCG [Eli NG1ss - 73] (Eterna round: R96, puzzle: Same State NG 1) | 0.0817 µM | 0.123 µM | 0.171 µM | – | – | –
CCGAUAAAUGGAGGAUAUGGAGCCUUAUUGGCUCCAGAAGGCUAAUAACAUGAGGAUCACCCAUGUCGGCGGUCUAAUGACCGA [Eli NG1ss - 51] (Eterna round: R96, puzzle: Same State NG 1) | 0.0464 µM | – | – | – | – | –
CCGCUAAAUGGAGGAUAUGGAGCCUUAUUGGCUCCAGAAGGUCAAAACAUGAGGAUCACCCAUGUGCGGCGGUCUAAUGACCGA [Eli NG1ss - 48] (Eterna round: R96, puzzle: Same State NG 1) | 0.122 µM | – | – | – | – | –
CCGGAUAAUGGAGGAUAUGGAGCCUUAUUGGCUCCAGAAGGCUAACAUGAGGAUCACCCAUGUAAUCCGGCGGUCAAUAGACCG [Eli NG1ss - 65] (Eterna round: R96, puzzle: Same State NG 1) | 0.015 µM | 0.012 µM | 0.0255 µM | – | – | –

Source: the supplement of paper PMC9170038
